# Results: patent US20230000956A1, “COMBINATION THERAPY WITH GLUCARPIDASE WITH METHOTREXATE/RITUXIMAB TO TREAT CNS LYMPHOMA” (MEMORIAL SLOAN KETTERING CANCER CENTER, priority 2019, published 2023)
# Entries after “also recorded” stand apart in the source; their conditions may differ. Where two headings read alike, the source gives them in different places.
# T1: glucarpidase enzymatic activity (Pseudomonas sp., UniProt P06621)
# T1 sequence (P06621 23-415): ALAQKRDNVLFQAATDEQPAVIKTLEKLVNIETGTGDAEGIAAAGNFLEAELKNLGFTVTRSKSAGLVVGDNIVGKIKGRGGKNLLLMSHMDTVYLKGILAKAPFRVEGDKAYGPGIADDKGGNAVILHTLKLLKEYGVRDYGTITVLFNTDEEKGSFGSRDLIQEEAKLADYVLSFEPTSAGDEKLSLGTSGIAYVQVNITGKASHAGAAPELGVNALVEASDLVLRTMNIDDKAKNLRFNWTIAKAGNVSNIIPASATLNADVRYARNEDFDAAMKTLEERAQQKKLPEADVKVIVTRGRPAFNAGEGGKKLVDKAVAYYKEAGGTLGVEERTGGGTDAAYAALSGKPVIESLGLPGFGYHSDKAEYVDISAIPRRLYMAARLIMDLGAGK
# B1: glucarpidase: recombinant bacterial enzyme that cleaves serum MTX to inactive metabolites (SEQ ID NO: 1) (protein)
# chain: T1 sequence (P06621 23-415)
# Assays:
# [1] = CSF MTX and glucarpidase (Example 2)
# Method: Methods. In a phase I dose-finding study of planned-use glucarpidase following HD-MTX, patients were treated with either MTX at 3 g/m^2, 6 g/m^2, or 8 g/m^2. Glucarpidase was dose-reduced to 1000 U or 2000 U and given 24 hours after MTX. […] MTX levels following glucarpidase were determined via mass spectrometry as immunoassay fails to differentiate MTX from byproducts.
# [2] = Serum MTX level after outpatient HD-MTX with glucarpidase (Example 3); type: in vivo; details: human, intravenous, outpatient MTX 3.5 g/m^2, glucarpidase 2000 U next day, 7 treatments, 3 patients, all cases, read-out: serum MTX levels at 48 hours
# [3] = CSF MTX concentrations following glucarpidase (Example 1); type: in vivo, human; details: evaluated in two patients
# Method: (§1) Cerebrospinal fluid (CSF) was collected throughout treatment. Serum was collected for analysis of anti-glucarpidase antibodies. […] Rituximab was always dosed at 500 mg/m^2.
# CNSL = details: cited from earlier work
# [4] = cited from earlier work
# [5] = cited from earlier work; remark: listed apart in the source
# [6] = Serum MTX levels before and after glucarpidase, mass spectrometry (Example 1)
# Method: (§2) Patients were enrolled into two cohorts with Cohort A receiving MTX 3 g/m^2 and Cohort B receiving MTX 6 g/m^2. Glucarpidase 2000 U or 1000 U was administered 24 hours following the initiation of MTX infusion. […] In the present Example, rituximab was administered on Day 1, MTX on Day 2, glucarpidase Day 3, followed by an 11-day non-treatment period before the start of the next cycle.
# [7] = system: anti-glucarpidase antibodies; experiment: Anti-glucarpidase antibodies in serum (Example 1); type: in vivo, human; details: two patients, one result per patient
# Method: as §1
# [8] = type: in vivo, human
# [9] = system: anti-glucarpidase antibodies; set-up: species or system human; details: in vivo
# [10] = in vivo
# Method: as §2
# [11] = cited from earlier work; remark: listed apart in the source
# [12] = Adverse events (Example 1); set-up: species or system human; details: in vivo
# Description: A cycle is typically 14±7 days.
# [13] = in vivo; cited from earlier work
# [14] = biological target: T1, glucarpidase enzymatic activity; details: serum from four of 22 patients with an antibody response; cited from earlier work
# [15] = set-up: species or system human; details: in vivo
# [16] = system: anti-glucarpidase antibodies; details: in vivo; cited from earlier work
# [17] = setting of MTX-related acute kidney injury
# [18] = around 24 hours after glucarpidase, 8 doses
# [19] = typically around 24 hours after glucarpidase
molecule,measurement,setting,value
"CN(Cc1cnc2nc(N)nc(N)c2n1)c1ccc(C(=O)N[C@@H](CCC(=O)O)C(=O)O)cc1 [MTX, Methotrexate]",MTX concentrations in CSF (potentially cytotoxic),[1]; 25 hours following MTX administration (1 hour after glucarpidase),10^−6 M
same,CSF MTX concentrations following glucarpidase (conclusion),[1]; in vivo,remain at cytotoxic levels
same,concentration at 48 h,[2],< 100 nM
same,CSF methotrexate concentrations following glucarpidase administration,[3],remained therapeutic
same,overall response rates (ORR),"CNSL; PCNSL, upfront setting",up to 74%
same,survival benefit,"CNSL; retrospective analysis of 357 patients, regimens with doses 3 g/m^2",statistically significant survival benefit
same,adults sustaining acute kidney injury,[4]; HD-MTX,2-12%
same,"incidence of systemic toxicities (hepatic injury, pneumonitis, bone marrow suppression)",[4]; in vivo,< 10%
same,patients requiring MTX dose reduction,[4]; [17],14-44%
same,patients with premature cessation of therapy,[4]; [17],5-8%
same,blood brain barrier penetration,[5]; high doses (>1.5 g/m^2) as a rapid infusion,penetrates the blood brain barrier
same,share cleared via renal excretion,[5]; in vivo,70-90%
same,median elevation of MTX (transient increase),[6]; [18],290 nmol/L
same,range of elevation of MTX (transient increase),[6]; [18],119 to 516 nmol/L
same,serum MTX levels within 15 minutes of glucarpidase,[6]; in 23/24 doses,less than 100 nmol/L
same,doses followed by transient increase in MTX levels above 100 nmol/L,[6]; [19],8 of 24
same,share of doses followed by transient increase in MTX levels above 100 nmol/L,[6]; [19],33%
B1,anti-glucarpidase antibody titer levels,[7],detectable anti-glucarpidase antibodies; also recorded: did not develop any anti-glucarpidase antibodies
same,glucarpidase in the CSF,[1]; in vivo,not detected
same,reduction in serum MTX levels within 15 minutes,"[8]; glucarpidase 1000 U (14 treatments) or 2000 U (36 treatments), following 49/50 doses",≥ 95%
same,doses with at least a 95% reduction in serum MTX levels within 15 minutes,[8]; glucarpidase 1000 U or 2000 U,49/50
same,"decrease in serum MTX levels, remaining dose",[8]; in vivo,93%
same,efficacy after repeated doses and antibody formation,[8]; low-dose glucarpidase,remains effective even after repeated doses and despite the formation of anti-glucarpidase antibodies
same,reduction of MTX levels (conclusion),[8]; low-dose glucarpidase,> 95%
same,patients with anti-glucarpidase antibodies detected,[9],6 of 8
same,"decrease in serum MTX levels, remaining dose",[10],93%
same,safety and efficacy at approved dose,"[11]; 50 units/kg, patients with delayed MTX elimination from renal impairment",safe and efficacious
same,"patients reporting nausea, vomiting, hypotension, paresthesias, flushing, and headache",[11]; in vivo,< 3%
same,adverse events associated with glucarpidase administration,[12],no adverse events associated with glucarpidase administration
same,half-life,[13],6 to 9 h
same,volume of distribution,[13],3.6 L
same,inhibition of glucarpidase enzymatic activity in vitro by patient serum,[14],28-58%
same,grade 3 events,[15],no grade 3 events
same,grade 4 events,[15],only one grade 4 anaphylactic reaction
same,antibody formation post glucarpidase,[16],37-43%
same,patients developing antibodies,[16],roughly 17%
same,doses with at least a 95% reduction in serum MTX levels within 15 minutes,[6]; glucarpidase 2000 U or 1000 U,23/24
same,share of doses with at least a 95% reduction in serum MTX levels within 15 minutes,[6]; glucarpidase 2000 U or 1000 U,96%
same,reduction in serum MTX levels within 15 minutes of administration,"[6]; glucarpidase 2000 U or 1000 U 24 h after MTX 3 or 6 g/m^2, in 23/24 doses",≥ 95%
same,effect on serum MTX levels (summary),[6]; low-dose glucarpidase 24 hours after MTX,rapid reduction in serum MTX levels
